Reference: patent publication US20110059095A1 (Regeneron, published 2011)
Each block holds one binder with its values, some of them ahead of it.

Experiments:
full length human PAR-2 = full length human PAR-2 (human, UniProt P55085 26-397); experiment: cell-based or functional assay
[1] = target: T1, C-terminal biotinylated human PAR-2 peptide SEQ ID NO:875 (Leu-38 to Ala) (human, not fully specified; C-terminal biotin (K-B)); experiment: BLI Exp2
T1 construct: alanine-scan mutant
T1 peptide: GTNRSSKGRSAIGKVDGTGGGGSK
Procedure: (§1) In order to more particularly identify the amino acids of PAR-2 with which the PAR-2 antibodies interact, an alanine scanning study was carried out using peptides comprising the activating PAR-2 protease cleavage site.
(§2) The ability of each peptide mutant to bind to PAR-2 antibodies was measured using biolayer interferometry (Octet Red; ForteBio). Each peptide (2.5 μg/ml) was captured on streptavidin coated biosensor tips (Octet SA sensor) for 10 seconds. To measure binding and dissociation between each peptide and PAR-2 antibody, the peptide-coated biosensors were contacted with 200 nM solutions of PAR-2 antibodies for 5 minutes (binding) followed by transfer to buffer with no antibody for 10 min (dissociation). […] The results are expressed as percent binding and percent T_{1/2} relative to WT peptide (Tables 24-28).

[2] = target: T2, C-terminal biotinylated human PAR-2 peptide SEQ ID NO:877 (Gly-40 to Ala) (human, not fully specified; C-terminal biotin (K-B)); experiment: BLI Exp2
T2 construct: alanine-scan mutant
T2 peptide: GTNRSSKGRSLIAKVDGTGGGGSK
Procedure: as §1, §2

[3] = target: T3, C-terminal biotinylated human PAR-2 14-mer peptide SEQ ID NO:886 (Asp-43 to Ala) (human, not fully specified; C-terminal biotin (K-B)); experiment: BLI Exp2
T3 peptide: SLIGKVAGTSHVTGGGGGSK
Procedure: as §1, §2

[4] = target: T4, C-terminal biotinylated human PAR-2 peptide SEQ ID NO:876 (Ile-39 to Ala) (human, not fully specified; C-terminal biotin (K-B)); experiment: BLI Exp2
T4 construct: alanine-scan mutant
T4 peptide: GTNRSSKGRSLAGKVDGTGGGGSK
Procedure: as §1, §2

[5] = target: T5, C-terminal biotinylated human PAR-2 peptide SEQ ID NO:882 (Thr-45 to Ala) (human, not fully specified; C-terminal biotin (K-B)); experiment: BLI Exp2
T5 construct: alanine-scan mutant
T5 peptide: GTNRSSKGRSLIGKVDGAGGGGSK
Procedure: as §1, §2

[6] = target: T6, C-terminal biotinylated human PAR-2 peptide SEQ ID NO:880 (Asp-43 to Ala) (human, not fully specified; C-terminal biotin (K-B)); experiment: BLI Exp2
T6 construct: alanine-scan mutant
T6 peptide: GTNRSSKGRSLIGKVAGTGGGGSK
Procedure: as §1, §2

[7] = target: T7, C-terminal biotinylated human PAR-2 14-mer peptide SEQ ID NO:884 (SLIGKVDGTSHVTG, wild-type) (human, not fully specified; C-terminal biotin (K-B)); experiment: BLI Exp2
T7 peptide: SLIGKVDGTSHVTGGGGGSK
Procedure: as §1, §2

[8] = target: T8, C-terminal biotinylated human PAR-2 peptide SEQ ID NO:881 (Gly-44 to Ala) (human, not fully specified; C-terminal biotin (K-B)); experiment: BLI Exp2
T8 construct: alanine-scan mutant
T8 peptide: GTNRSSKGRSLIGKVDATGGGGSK
Procedure: as §1, §2

[9] = target: T9, C-terminal biotinylated human PAR-2 peptide SEQ ID NO:878 (Lys-41 to Ala) (human, not fully specified; C-terminal biotin (K-B)); experiment: BLI Exp2
T9 construct: alanine-scan mutant
T9 peptide: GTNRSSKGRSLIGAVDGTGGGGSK
Procedure: as §1, §2

[10] = target: T10, C-terminal biotinylated human PAR-2 14-mer peptide SEQ ID NO:885 (Val-42 to Ala) (human, not fully specified; C-terminal biotin (K-B)); experiment: BLI Exp2
T10 peptide: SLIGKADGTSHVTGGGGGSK
Procedure: as §1, §2

[11] = target: T11, C-terminal biotinylated human PAR-2 peptide SEQ ID NO:874 (Ser-37 to Ala) (human, not fully specified; C-terminal biotin (K-B)); experiment: BLI Exp2
T11 construct: alanine-scan mutant
T11 peptide: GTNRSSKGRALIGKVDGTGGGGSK
Procedure: as §1, §2

full length mouse PAR-2 = target: T12, full length mouse PAR-2 (mouse, UniProt P55086 26-399); experiment: MSD cell binding
T12 construct: also called 293/D9/mPAR-2rec cells
T12 chain: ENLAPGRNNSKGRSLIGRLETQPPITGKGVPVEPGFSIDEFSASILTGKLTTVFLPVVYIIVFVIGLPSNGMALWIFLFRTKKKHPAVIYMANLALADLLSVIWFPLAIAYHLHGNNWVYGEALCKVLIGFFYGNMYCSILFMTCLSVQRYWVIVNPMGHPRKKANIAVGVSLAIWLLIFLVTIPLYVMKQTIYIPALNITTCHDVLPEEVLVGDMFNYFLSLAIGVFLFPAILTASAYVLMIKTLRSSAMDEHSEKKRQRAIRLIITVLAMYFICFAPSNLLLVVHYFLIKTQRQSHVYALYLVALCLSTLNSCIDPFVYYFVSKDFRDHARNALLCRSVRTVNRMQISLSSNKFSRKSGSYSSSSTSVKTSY
In short: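 Antibodies, two-fold dilutions from 100 nM to 0.098 nM, bound for 1 h at room temperature to HEK293/D9 cells stably expressing human or mouse PAR-2, detected by sulfo-tagged anti-human IgG electrochemiluminescence. Parental 293/D9 signal was subtracted; EC50 and Bmax came from sigmoidal dose-response fits.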

full length human PAR-2, sequence (P55085 26-397 G138A limits assumed): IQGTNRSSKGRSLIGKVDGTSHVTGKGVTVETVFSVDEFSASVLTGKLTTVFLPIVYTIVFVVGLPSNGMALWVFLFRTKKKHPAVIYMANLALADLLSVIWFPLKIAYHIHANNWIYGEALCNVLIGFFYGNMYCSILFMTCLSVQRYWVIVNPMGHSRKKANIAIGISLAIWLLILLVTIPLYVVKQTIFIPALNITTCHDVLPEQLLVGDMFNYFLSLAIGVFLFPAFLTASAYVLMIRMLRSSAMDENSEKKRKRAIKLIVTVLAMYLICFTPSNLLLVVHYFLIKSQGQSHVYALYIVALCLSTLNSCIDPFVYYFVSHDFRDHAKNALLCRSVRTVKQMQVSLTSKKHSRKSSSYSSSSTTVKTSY

- IC50, NF-kB-luciferase, 10 nM Human Trypsin 1 (full length human PAR-2): 42.7 nM
- IC50, NF-kB-luciferase, 200 nM Factor Xa (full length human PAR-2): 17.1 nM
- IC50, NF-kB-luciferase, 750 nM Lung Tryptase (full length human PAR-2): 1.6 nM
- % Rel Binding [1]: 105%
- % Rel T1/2 [1]: 42%
- % Rel Binding [2]: 30%
- % Rel T1/2 [2]: 0%
- binding result [3]: no binding (tested: 200 nM antibody)
- % Rel Binding [4]: 85%
- % Rel T1/2 [4]: 8%
- % Rel Binding [5]: 121%
- % Rel T1/2 [5]: 33%
- % Rel Binding [6]: 8%
- % Rel T1/2 [6]: 5%
- % Rel Binding [7]: 100%
- % Rel T1/2 [7]: 100%
- % Rel Binding [8]: 67%
- % Rel T1/2 [8]: 1%
- % Rel Binding [9]: 121%
- % Rel T1/2 [9]: 60%
- % Rel Binding [10]: 83%
- % Rel T1/2 [10]: 0%
- % Rel Binding [11]: 93%
- % Rel T1/2 [11]: 70%
B1: H4H588N (antibody, human IgG4, V domains shown)
VH: EVQLLESGGGLVQPGGSLRLSCAASGFTFSSYAMTWVRQAPGKGLYWVSAISGGRGSAYYADSVKGRFTISRDNSKNTLYLQMNSLRAEDTAVYYCAKEGDSGYDLAYWGRGTLVTVSS
VL: DIQMTQSPSSLSASVGDRVTITCRARQGISNNLAWLQQKPGKAPKSLIYAASSLQSGIPSKFSGSGSGTYFTLTISSLQPEDFATYYCQQYKSSPLTFGGGTKVEIK
notes: also called H2M588N variable regions
- binding result (full length mouse PAR-2): no binding (tested: 100 nM to 0.098 nM antibody)

- Bmax (full length mouse PAR-2): 7220 MSD Unit
- EC50 (full length mouse PAR-2): 9.28 nM
B2: H4H583P (antibody, human IgG4, V domains shown)
VH: QVQLVESGGGVVQPGMSLRLSCTASGFTFRRYGMHWVRQAPGKGLEWVAVIWYDGSNKYYADSVKGRFTITRDNSKNTLYLQMNSLRAEDTAIYFCASEITIGDWFDPRGQGTLVTVSS
VL: AIQMTQSPSSLSASVGDRVTITCRASQGIRNDLGWFQQKPGKVPKLLIYAASTLHSGVPSRFSGSGFGTDFTLTISSLQPEDFATYYCLQDFNYPLTFGGGTKVEIK
notes: also called H1H583P variable regions

- IC50, NF-kB-luciferase, 10 nM Human Trypsin 1 (full length human PAR-2): 7.4 nM
- IC50, NF-kB-luciferase, 200 nM Factor Xa (full length human PAR-2): 5.3 nM
- IC50, NF-kB-luciferase, 750 nM Lung Tryptase (full length human PAR-2): 1.1 nM
- % Rel Binding [1]: 19%
- % Rel T1/2 [1]: 0%
- % Rel Binding [2]: 92%
- % Rel T1/2 [2]: 15%
- binding result [3]: no binding (tested: 200 nM antibody)
- % Rel Binding [4]: 14%
- % Rel T1/2 [4]: 0%
- % Rel Binding [5]: 91%
- % Rel T1/2 [5]: 94%
- % Rel Binding [6]: 5%
- % Rel T1/2 [6]: 4%
- % Rel Binding [7]: 100%
- % Rel T1/2 [7]: 100%
- % Rel Binding [8]: 102%
- % Rel T1/2 [8]: 124%
- % Rel Binding [9]: 109%
- % Rel T1/2 [9]: 49%
- % Rel Binding [10]: 19%
- % Rel T1/2 [10]: 0%
- % Rel Binding [11]: 56%
- % Rel T1/2 [11]: 3%
B3: H4H581P (antibody, human IgG4, V domains shown)
VH: QVQLVESGGGVVQPGRSLRLSCVASGFTFSRYGIHWVRQAPGKGLEWVIVISYDGINKYYADSVKGRFTISRDNSKNTVYLQMNSLRAEDTAVYYCAKGDFWSGYFDYWGQGTLVTVSS
VL: DIVMTQTPLSSPVTLGQPASISCRSSQSLVHSDGNTYLSWLHQRPGQPPRLLIYKISNRFSGVPDRFSGSGAGTDFTLQISRVEAEDVGIYYCMQATQFPTFGGGTKVEIK
notes: also called mAb H4H581P; H1H581P variable regions
